B1: 6H8: anti-HSP90 monoclonal antibody produced by hybridoma FERM BP-11222; epitope … (antibody)
VH: QVQLQQSGPELVKPGASVRISCKASGYTFTSYYIHWVKQRPGQGLEWIGWIYPGNVNTKYNEKFKGKATLTADKSSSTAYMQLSSLTSEDSAVYFCARYGNYPFAYWGQGTLVTVSAAKTTAPSVYPLAPVCGDTTGSSVTLGCLVKGYF
VL: DVVMTQTPLSLPVSLGDQASISCRSSQSLVHSNGNTYLHWYLQKPGQSPKLLIYKVSNRFSGVPDRFSGSGSGTDFTLKISRVEAEDLGVYFCSQSTHVPPTFGGGTKLEIKRADAAPTVSIFPPSSEQLTSGGASVVCFLNNFYPKDINVKWKIDGS
B2: 6H8-OVA: high molecular weight conjugate of the 6H8 antibody and maleimide-activated OVA (conjugate)
VH: QVQLQQSGPELVKPGASVRISCKASGYTFTSYYIHWVKQRPGQGLEWIGWIYPGNVNTKYNEKFKGKATLTADKSSSTAYMQLSSLTSEDSAVYFCARYGNYPFAYWGQGTLVTVSAAKTTAPSVYPLAPVCGDTTGSSVTLGCLVKGYF
VL: DVVMTQTPLSLPVSLGDQASISCRSSQSLVHSNGNTYLHWYLQKPGQSPKLLIYKVSNRFSGVPDRFSGSGSGTDFTLKISRVEAEDLGVYFCSQSTHVPPTFGGGTKLEIKRADAAPTVSIFPPSSEQLTSGGASVVCFLNNFYPKDINVKWKIDGS
chain: GSIGAASMEFCFDVFKELKVHHANENIFYCPIAIMSALAMVYLGAKDSTRTQINKVVRFDKLPGFGDSIEAQCGTSVNVHSSLRDILNQITKPNDVYSFSLASRLYAEERYPILPEYLQCVKELYRGGLEPINFQTAADQARELINSWVESQTNGIIRNVLQPSSVDSQTAMVLVNAIVFKGLWEKAFKDEDTQAMPFRVTEQESKPVQMMYQIGLFRVASMASEKMKILELPFASGTMSMLVLLPDEVSGLEQLESIINFEKLTEWTSSNVMEERKIKVYLPRMKMEEKYNLTSVLMAMGITDVFSSSANLSGISSAESLKISQAVHAAHAEINEAGREVVGSAEAGVDAASVSEEFRADHPFLFCIKHIATNAVLFFGRCVSP

Tests used:
OT-I CD8+ T cells [1] = assay: In vivo OT-I CD8+ T cell proliferation by 6H8-OVA after 6H8 antibody given in advance; set-up: species or system mouse; conditions: 6H8 antibody 20 μg in advance, 6H8-OVA (0.3 mg), tail vein, 72 hours
Procedure: The 6H8 antibody or IgG2a [normal mouse IgG2a (nmIgG2a), 20 μg] was diluted with 200 μl of PBS and administered to B6 mice from the tail vein. As a control, a group of animals that received PBS alone was also prepared.
Subsequently, CFSE-labeled OT-I CD8^+ T cells ([…]) were suspended in 200 μl of RPMI and administered from the tail vein. Concurrently, 6H8-OVA (0.3 mg) diluted with 200 μl of PBS was administered from the tail vein. As a control, a group of animals that received PBS alone was also prepared.
72 hours later, splenocytes were recovered from each recipient mouse, and decay of CFSE intensity were measured using FACS Calibur (BD Biosciences) to confirm the proliferation of transferred cells.

OT-I CD8+ T cells [2] = assay: In vivo cross-presentation assay with free 6H8 antibody administered concurrently; set-up: species or system mouse; conditions: 72 hours
Procedure: (1) CFSE-labeled CD8^+ T cells of an OT-I/CD45.1 mouse were transferred to recipient mice from the tail vein, with 6H8-OVA [or 6H8 (F(ab′)2)—OVA, or OVA, or IgG2a-OVA] (0.3 μg) and the free 6H8 antibody [or 6H8 (F(ab′)2) or IgG2a] (30 μg) administered from the tail vein concurrently. (2) 72 hours later, the spleen was recovered from each mouse, and 2×10^6 splenocytes were stained with the PE-CD45.1 antibody in a 96-well round-bottomed plate for 30 minutes (while cooling on ice). (3) The CFSE intensity of CD45.1-positive cells (OT-I CD8^+ T cells) was determined using FACS Canto (BD).

[3] = system: GM-CSF-dependent bone marrow-derived dendritic cells; assay: Cytokine production from bone marrow-derived dendritic cells on immobilized 6H8 antibody; assay type: cell-based; conditions: antibody immobilized on 96-well plate, 12 hours
Procedure: (1) […] of the 6H8 antibody diluted in PBS (10 mg/ml) was added to a 96-well flat plate (Corning Incorporated, product number 3596), and the plate was treated at 4° C. overnight. (2) The plate was washed twice with […] of PBS to remove the excess 6H8 antibody. (3) On day 5 after induction, GM-CSF-dependent bone marrow-derived dendritic cells were added to the plate from (2) at 1×10^5/well and cultured in an incubator at 37° C. with 5% CO2. (4) 12 hours after the start of cultivation, the supernatant was recovered; the amounts of cytokines and chemokines in the supernatant were determined according to a standard protocol using the Bio-Plex suspension array system with 23-Plex Panel (Bio-rad, 171-F11241).

cell surface HSP90 = assay: FACS staining of cell surface HSP90 on DC2.4 cells not subjected to membrane permeabilization; assay type: binding; conditions: DC2.4 cells not permeabilized, biotinylated antibody 1 μg/ml, 4° C.
Procedure: (1) 1.1 mg of the biotinylation reagent EZ-Link (registered trademark) Sulfo-NHS-Biotin (21217, Takara Bio Inc.) was dissolved in 250 μl of pure water (concentration 10 mM). 2 of the solution of the biotinylation reagent was added to 100 of an antibody protein (1 mg/ml), and the reaction was allowed to proceed while cooling on ice for 2 hours. After the reaction, the unreacted biotin reagent was removed using Centricon[5k] (Millipore). The reaction product was adjusted to a final concentration of 1 mg/ml and stored at 4° C. (2) DC2.4 not subjected to membrane permeabilization (1×10^6 cells/0.1 ml), along with the biotinylated anti-HSP90 antibody (1 μg/ml), was incubated at 4° C. for 30 minutes. For negative control, DC2.4 was likewise incubated in an antibody-free PBS. (3) After the unreacted antibody was removed, DC2.4 (1×10^6 cells/0.1 ml), along with PE-cy5 streptavidin (eBioscience, 15-4317-82, used at a concentration of 0.5 μg/ml), was incubated at 4° C. for 30 minutes. (4) After the unreacted PE-cy5 streptavidin was removed, the cells were analyzed by FACS (Becton Dickinson).
The right panels of FIGS. 2A and B show FACS data (histograms) for DC2.4 cells stained with each monoclonal antibody in the same manner as Example 2.

OT-II CD4+ T cells [4] = assay: In vivo division of OT-II CD4+ T cells; set-up: species or system mouse; conditions: series of doses injected into recipient mice
OT-I CD8+ T cells [5] = assay: In vitro cross-presentation assay, DC2.4 cells with OT-I CD8+ T cells, IFNγ; assay type: cell-based, mouse
Procedure: A cross-presentation assay was performed using each fraction as an antigen. DC2.4 cells were pulsed with 5 μg/ml (30 μg/ml, only for the fraction 33) of each fraction or 1 mg/ml of free OVA for 3 hours. […]
(§1) Next, DC2.4 cells were pulsed with a series of doses of 6H8-OVA (fractions 15 to 19) and free OVA (fraction 33) and incubated along with OT-I CD8^+ T cells and OT-II CD4^+ T cells [splenocytes of an OT-II mouse were recovered, and CD11b-positive cells were removed according to a standard protocol using BD IMag anti mouse CD11b magnetic particles DM (BD Biosciences Pharmingen, 558013); next, CD4-positive cells were purified according to a standard protocol using BD IMag anti mouse CD4 particles DM (BD Biosciences Pharmingen, 551539); the cells obtained were used as the OT-II CD4^+ T cells], and the amount of IFNγ secreted from T cells was measured, whereby the cross-presentation potential of 6H8-OVA was evaluated.

OT-II CD4+ T cells [6] = assay: In vitro antigen presentation assay, DC2.4 cells with OT-II CD4+ T cells, IFNγ; assay type: cell-based, mouse; conditions: DC2.4 pulsed with series of doses, IFNγ secreted
Procedure: as §1

| Molecule | effect on promotion of proliferation of CD8+ T cells by 6H8-OVA (OT-I CD8+ T cells [1]) | effect of concurrently administered free antibody on OT-I CD8+ T cell proliferation reaction by 6H8-OVA (OT-I CD8+ T cells [2]; free antibody 30 μg with 6H8-OVA 0.3 μg) | production of IL-1α, IL-1β, IL-2, IL-4, IL-9, IL-10, IL-12(p40), IL-12(p70), IL-13, G-CSF, GM-CSF, KC, MCP-1, MIP-1α, MIP-1β, RANTES [3] | recognition of cell surface HSP90 (FACS) (cell surface HSP90) | promotion of the division of OT-II CD4+ T cells (OT-II CD4+ T cells [4]) | induction of IFNγ production by OT-I CD8+ T cells (OT-I CD8+ T cells [5]; DC2.4 pulsed 3 hours with fractions 15 to 21, less than 5 μg/ml protein) | effectiveness on OT-I CD8+ T cells relative to free OVA (OT-I CD8+ T cells [5]; DC2.4 pulsed with series of doses, IFNγ secreted) | proliferation reaction of adoptively transferred OT-I CD8+ T cells (OT-I CD8+ T cells [2]; 0.3 μg alone) | antigen presentation to OT-II CD4+ T cells (OT-II CD4+ T cells [6]) |
| --- | --- | --- | --- | --- | --- | --- | --- | --- | --- |
| B1 | enhanced | remarkably enhanced | induced | recognized cell surface HSP90 with high sensitivity |  |  |  |  |  |
| B2 |  |  |  |  | required a higher dose | efficiently induced IFNγ production by CD8^+ T cells | at least 100 times | slight proliferation reaction | weak, although it was better than free OVA |
